Experimental data as given in patent US20250243290A1.
Where “and” joins values, the source holds several entries; their conditions need not be identical. Identical values can stand only once. Like-named read-outs stand apart in the source and are kept apart here.

Columns and labels:
CG2RL2APLRK2…22SK2C = assay: peptide-array ELISA [Con't]
…2R [1] = assay: peptide-array ELISA [Con't]
LS2…2…2 = assay: peptide-array ELISA [Con't]
[2] = biological target: E2LSCGSR2…; assay: peptide-array ELISA [Con't]
[3] = biological target: 2…; assay: peptide-array ELISA [Con't]
KQEG2…2APGTFSN = assay: peptide-array ELISA [Con't]
S2…2RPGW = assay: peptide-array ELISA [Con't]
2LSCGSR2…2T = assay: peptide-array ELISA [Con't]
NRI2…2RL = assay: peptide-array ELISA [Con't]
2TREQNRI2…2RL = assay: peptide-array ELISA [Con't]
[4] = biological target: LSCGSR2…; assay: peptide-array ELISA [Con't]
[5] = biological target: WVPE2…; assay: peptide-array ELISA [Con't]
[6] = biological target: CNASMDAV2…2…; assay: peptide-array ELISA [Con't]
V2…2NV = assay: peptide-array ELISA [Con't]
CTV2DS2…2TSTSPTRC = assay: peptide-array ELISA [Con't]
…2SK2SPGQ = assay: peptide-array ELISA [Con't]
CDVV2KP2…2TSTSPTRC = assay: peptide-array ELISA [Con't]
…2TSTSPTRC = assay: peptide-array ELISA [Con't]
…2N = assay: peptide-array ELISA [Con't]
[7] = biological target: KQEGCRL2…2…; assay: peptide-array ELISA [Con't]
[8] = biological target: CQA2TREQNRI2T2RPCAPLRK2…; assay: peptide-array ELISA [Con't]
[9] = biological target: CAPLRK2…2…; assay: peptide-array ELISA [Con't]
[10] = biological target: …2TSCAPLRK2…; assay: peptide-array ELISA [Con't]
[11] = biological target: VV2…; assay: peptide-array ELISA [Con't]
TREQNRI2…2R = assay: peptide-array ELISA [Con't]
…2R [12] = assay: peptide-array ELISA [Con't]; remark: listed apart in the source
[13] = biological target: 2…; assay: peptide-array ELISA [Con't]; remark: listed apart in the source
REQNRI2…2R = assay: peptide-array ELISA [Con't]
[14] = biological target: …2…; assay: peptide-array ELISA [Con't]
LS2…2R = assay: peptide-array ELISA [Con't]
LSCGSR2…2T = assay: peptide-array ELISA [Con't]
[15] = biological target: CAPEPGST2…2…; assay: peptide-array ELISA [Con't]
TREQNRI2…2RL = assay: peptide-array ELISA [Con't]
2…2R = assay: peptide-array ELISA [Con't]
[16] = biological target: CG2RL2APLRK2RPGFCQA2TREQNRI2T2RPC; assay: peptide-array ELISA [Con't]
[17] = biological target: VPE2LSCGSR2…; assay: peptide-array ELISA [Con't]
[18] = biological target: SKQEGCRL2APGGSGGL2…; assay: peptide-array ELISA [Con't]
LWNWVPE2…2T = assay: peptide-array ELISA
[19] = biological target: LWNWVPE2…; assay: peptide-array ELISA
LS2…2RPG = assay: peptide-array ELISA
[20] = biological target: CEQNRI2T2RPGWY2…2TSTSPTRC; assay: peptide-array ELISA
S2…2RPG = assay: peptide-array ELISA
E2LS2…2RP = assay: peptide-array ELISA
2…2RP = assay: peptide-array ELISA
PE2LS2…2RP = assay: peptide-array ELISA
VPE2LS2…2RP = assay: peptide-array ELISA
LWNWVPE2…2 = assay: peptide-array ELISA
…2…2RP = assay: peptide-array ELISA
2LS2…2RPGW = assay: peptide-array ELISA
WNWVPE2…2 = assay: peptide-array ELISA
2…2RPG = assay: peptide-array ELISA
…2RP = assay: peptide-array ELISA
[21] = biological target: QEGCRL2…; assay: peptide-array ELISA
VPE2LS2…2TREQNRIC = assay: peptide-array ELISA
LS2…2RP = assay: peptide-array ELISA
VPE2LSCGSR2…2 = assay: peptide-array ELISA
S2…2RP = assay: peptide-array ELISA

Chain of …2… (peptide, as listed by the source): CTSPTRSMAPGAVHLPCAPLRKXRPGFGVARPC
Chain of LSCGSR2… (peptide, as listed by the source): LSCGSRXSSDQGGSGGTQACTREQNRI
Chain of …2TSTSPTRC (peptide, as listed by the source): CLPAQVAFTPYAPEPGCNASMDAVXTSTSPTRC
Chain of …2N (peptide, as listed by the source): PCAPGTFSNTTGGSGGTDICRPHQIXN
Chain of QEGCRL2… (peptide, as listed by the source): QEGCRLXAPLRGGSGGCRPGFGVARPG
Chain of LWNWVPE2… (peptide, as listed by the source): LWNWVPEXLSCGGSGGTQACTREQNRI

agonistic TNFR2 antibody MR2-1 showed a Raw luminescence data (CG2RL2APLRK2…22SK2C) of 183, a Raw luminescence data (…2R [1]) of 180 and a Raw luminescence data (LS2…2…2) of 187. The Raw luminescence data [2] was 189, the Raw luminescence data [3] was 179 and the Raw luminescence data (KQEG2…2APGTFSN) was 180. It also gave a Raw luminescence data (S2…2RPGW) of 177, a Raw luminescence data (2LSCGSR2…2T) of 176 and a Raw luminescence data (NRI2…2RL) of 184. For the same substance, the Raw luminescence data (2TREQNRI2…2RL) was 186, the Raw luminescence data [4] was 181 and the Raw luminescence data [5] was 186 and 181. For the same substance, the Raw luminescence data [6] was 173, the Raw luminescence data (V2…2NV) was 177 and the Raw luminescence data (CTV2DS2…2TSTSPTRC) was 182. The Raw luminescence data (…2SK2SPGQ) was 181 and 173, the Raw luminescence data (CDVV2KP2…2TSTSPTRC) was 191 and the Raw luminescence data (…2TSTSPTRC) was 172. The Raw luminescence data (…2N) was 175, the Raw luminescence data [7] was 191 and the Raw luminescence data [8] was 204. The Raw luminescence data [9] was 223, the Raw luminescence data [10] was 197 and the Raw luminescence data [11] was 209. It also gave a Raw luminescence data (TREQNRI2…2R) of 205, a Raw luminescence data (…2R [12]) of 200 and a Raw luminescence data [13] of 208. The Raw luminescence data (REQNRI2…2R) was 210, the Raw luminescence data [14] was 192 and the Raw luminescence data (LS2…2R) was 218. It also gave a Raw luminescence data (LSCGSR2…2T) of 194, a Raw luminescence data [15] of 196 and a Raw luminescence data (TREQNRI2…2RL) of 206. For the same substance, the Raw luminescence data (2…2R) was 223, the Raw luminescence data [16] was 215 and the Raw luminescence data [17] was 194. It also gave a Raw luminescence data [18] of 224, a Raw luminescence data (LWNWVPE2…2T) of 467 and a Raw luminescence data [19] of 400. For the same substance, the Raw luminescence data (LS2…2RPG) was 433, the Raw luminescence data [20] was 413 and the Raw luminescence data (S2…2RPG) was 385. The Raw luminescence data (E2LS2…2RP) was 418, the Raw luminescence data (2…2RP) was 510 and the Raw luminescence data (PE2LS2…2RP) was 483. The Raw luminescence data (VPE2LS2…2RP) was 410, the Raw luminescence data (LWNWVPE2…2) was 525 and the Raw luminescence data (…2…2RP) was 459. The Raw luminescence data (2LS2…2RPGW) was 366, the Raw luminescence data (WNWVPE2…2) was 403 and the Raw luminescence data (2…2RPG) was 389. For the same substance, the Raw luminescence data (…2RP) was 435 and 433, the Raw luminescence data [21] was 428 and the Raw luminescence data (VPE2LS2…2TREQNRIC) was 399. For the same substance, the Raw luminescence data (LS2…2RP) was 584, the Raw luminescence data (VPE2LSCGSR2…2) was 365 and the Raw luminescence data (S2…2RP) was 392.
